Biological target: group I phospholipase A2
Assay: 125I-PLA2-I binding in COS7 culture supernatant, polyethylene glycol coprecipitation

B1: secretion type PLA2-I receptor protein (receptor)
chain: ETAAWAVTPERLREWQDKGIFIIQSENLEKCIQASKSTLTLENCKPPNKYMLWKWVSNHRLFNIGGSGCLGLNVSSPEQPLSIYECDSTHVSLKWHCNKKTITGPLQYLVQVKQDNTLVASRKYLHKWVSYMSGGGGICDYLHKDLYTIKGNAHGTPCMFPFQYNQQWHHECTREGREDNLLWCATTSRYERDEKWGFCPDPTSTEVGCDAVWEKDLHSRICYQFNLLSSLSWSEAHSSCQMQGAALLSIADETEENFVRKHLGSEAVEVWMGLNQLDEDAGWQWSDRTPLNYLNWKPEINFEPFVEYHCGTFNAFMPKAWKSRDCESTLPYVCKKYLNPTDHGVVEKDAWKYYATHCEPGWNPHNRNCYKLQKEKKTWNEALQSCQSNNSVLTDITSLAEVEFLVTLLGDENASETWIGLSSHKIPVSFEWSNGSSVTFTNWHTLEPHIFPNRSQLCVSAEQSEGHWKVKNCEETLFYLCKKTGLVLSDTESGCQKGWERHGKFCYKIDTVLRSFDHASSGYYCPPALITITSRFEQAFITSLISSVVKTKDTYFWIALQDQNNTGEYTWKTAGQQLEPVKYTHWNTRQPRYSGGCVVMRGRSHPGRWEVRDCRHFKAMSLCKQPVENREKTKQEEGWPFHPCYLDWESEPGLASCFKVFHSEKVLMKRTWRQAEEFCEEFGAHLASFAHIEEENFVNELLHSKFNRTEERQFWIGFNKRNPLNAGSWEWSDGTPVVSSFLDNSYFGEDARNCAVYKANKTLLPSYCGSKREWICKIPRDVRPKVPPWYQYDAPWLFYQDAEYLFHISASEWSSFEFVCGWLRSDILTIHSAHEQEFIHSKIRALSKYGVNWWIGLREERASDEFRWRDGSPVIYQNWDKGKERSMGLNESQRCGFISSITGLWASEECSISMPSICKRKKVWVIEKKKDIPKQHGTCPKGWLYFDYKCLLLKIPEGPSDWKNWTSAQDFCVEEGGTLVAIENEVEQAFITMNLFGHTTNVWIGLQDDDYEKWLNGRPVSYSNWSPFDTKNIPNHNTTEVQKRIPLCGLLSNNPNFHFTGKWYFEDCREGYGFVCEKMQDASGHSINTSDMYPIPNTLEYGNRTYKIINANMTWYTALKTCLMHGAELASITDQYHQSFLTVILNRVGYAHWIGLFTEDNGLSFDWSDGTKSSFTFWKDDESSFLGDCVFADTSGRWSSTACESYLQGAICQVPTETRLSGRLELCSETSIPWIKFKSNCYSFSTVLESTSFEAAHEFCKKKGSNLLTIKDEAENSFLLEELLAFRSSVQMIWLNAQFDGDNETIKWFDGTPTDQSNWGIRKPEVYHFKPHLCVALRIPEGVWQLSSCQDKKGFICKMEADIHTVKKHPGK
Kd: 0.8 nM

Source: patent US5612190
